# Experimental data from article PMC2174084 (The Journal of Cell Biology, 2002).
# No end group written: not given here.
# Molecular target: rabbit skeletal muscle actin, polymerized (F-actin) (rabbit, UniProt P68135 1-377)
# Assay: co-sedimentation
Binder,binding result,percent of the protein sedimenting with actin [%]
"LYAVGGHDGPMVRRSVEAYDCETNSWRSVADMSYCRRNAGVVAHDGL (domain or fragment, cysteine pairing not given here; also: biotin-labeled, place not given here) [Kelch repeat 5 (L594-L640)]",binds,
"LYAVGGHDGPMVRRSVEAYDCETNSWRSVADMSACRRNAGVVAHDGL (domain or fragment, cysteine pairing not given here; also: biotin-labeled, place not given here) [Kelch repeat 5 (L594-[Y627A]-L640)]",,100

# Continued, values first:
binding result,percent of the protein sedimenting with actin [%],Binder
,100,"LYAVGGHDGPMVRRSVEAYDCETNSWRSVADMSFCRRNAGVVAHDGL (domain or fragment, cysteine pairing not given here; also: biotin-labeled, place not given here) [Kelch repeat 5 (L594-[Y627F]-L640)]"
,< 50,"LYAVGGHDGPMVRRSVEAYDCETNSWRSVADMSDCRRNAGVVAHDGL (domain or fragment, cysteine pairing not given here; also: biotin-labeled, place not given here) [Kelch repeat 5 (L594-[Y627D]-L640)]"
